The values that follow are results of earlier work, collected in doi:10.1101/2025.04.17.649309.

In this data set the target is Cys12 (UniProt position 12, YTKETCPYCHR).

By pKa is commonly meant the negative logarithm of the acid dissociation constant. Turning to “Glutaredoxin 3 (Grx3) (Escherichia coli)”, the pKa is reported as 4.1.
